Data on one substance can be found in US20050037448A1.

For assay [1], the target named is des-31,32-proinsulin (UniProt P01308). Briefly: competitive RIA, PEP001-coated tubes, 125I-Tyr-C-peptide; serum E2 overloaded with 0.16 pmol/ml des-31,32-proinsulin; competitor AC1D4 20 µg/ml.
A further assay concerns the target des-64,65-proinsulin (UniProt P01308). Briefly: competitive RIA, PEP001-coated tubes, 125I-Tyr-C-peptide; serum E1 overloaded with 0.16 pmol/ml des-64,65-proinsulin; no AC1D4.
Assay [2] deals with human proinsulin (human) (UniProt P01308). Briefly: competitive RIA, PEP001-coated tubes, 125I-Tyr-C-peptide; serum E1 overloaded with 3.33 pmol/ml proinsulin; no AC1D4.
For assay [3] the target is unchanged. The experiment in a line: competitive RIA, PEP001-coated tubes, 125I-Tyr-C-peptide; serum E1 overloaded with 3.33 pmol/ml proinsulin; competitor AC1D4 20 µg/ml.
Assay [4] has as its target des-31,32-proinsulin (UniProt P01308). Briefly: competitive RIA, PEP001-coated tubes, 125I-Tyr-C-peptide; serum E1 overloaded with 3.33 pmol/ml des-31,32-proinsulin; no AC1D4.

With “PEP001 anti-C-peptide monoclonal antibody”, the Increase after overload (%) with des-31,32-proinsulin [1] is 0%; in the assay with des-64,65-proinsulin, 6%; with human proinsulin (human) [2], 288%; in the assay with human proinsulin (human) [3], 31%; with des-31,32-proinsulin [4] it was 213%.
